Patent US11278600B2, “Human alpha-galactosidase variants” (Codexis, Inc., priority 2014, dated 2022)

Legend:
Assay type in all cases: biochemical
[1] = HTP-analysis of yeast culture supernatants, no challenge (MUGal hydrolysis); conditions: activity of the variant/activity of Rd2BB (SEQ ID NO: 10), yeast culture supernatant
Summary of the method: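 GLA variants expressed in yeast INVSc1, secreted into SD-Ura broth over 66-84 h at 30° C; clarified supernatants tested without challenge. Supernatant mixed with McIlvaine buffer pH 4.8 and 2 mM MUGal (citrate/KCl, pH 4.6), 37° C for 30-180 min, carbonate-quenched, fluorescence Ex 355/Em 448 nm.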

[2] = HTP-analysis of supernatants pretreated with base (MUGal hydrolysis); conditions: challenge at pH 7.6; activity of the variant/activity of Rd2BB (SEQ ID NO: 10); yeast culture supernatant
Summary of the method: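 Supernatants from INVSc1 yeast expressing GLA variants (SD-Ura, 66-84 h, 30° C) were mixed with McIlvaine buffer pH 7.0-8.2 or 200 mM sodium bicarbonate pH 9.1-9.7 and held 1-18 h at 37° C. Residual activity was then measured on MUGal at pH 4.8/4.3, 37° C, 30-180 min, by fluorescence (Ex 355/Em 448 nm).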

[3] = HTP-analysis of supernatants pretreated with acid (MUGal hydrolysis); conditions: challenge at pH 4.2; activity of the variant/activity of Rd2BB (SEQ ID NO: 10); yeast culture supernatant
Summary of the method: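 Supernatants from INVSc1 yeast secreting GLA variants were challenged at 37° C. for 1-3 h in McIlvaine buffer at pH 3.3-4.3. Residual activity was then measured on 4 mM MUGal substrate stock at pH 4.8 with citrate buffer pH 4.3, over 30-180 min at 37° C. Reactions were quenched with sodium carbonate and read by fluorescence (Ex 355/Em 448 nm).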

[4] = HTP-analysis of supernatants pretreated with bovine serum (MUGal hydrolysis); conditions: activity of the variant/activity of Rd2BB (SEQ ID NO: 10), yeast culture supernatant
Summary of the method: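 Yeast INVSc1 culture supernatants containing secreted GLA variants were mixed with bovine serum (20:80) and held 1 h at 37° C. Serum-treated samples then reacted with MUGal (4 mM stock) in citrate/McIlvaine buffer (pH 4.3/4.8) for 180 min at 37° C., were quenched with sodium carbonate, and read by fluorescence (Ex 355, Em 448 nm).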

Row | Molecule | Relative Activity of GLA Variants After No Challenge (NC) [1] | Relative Activity of GLA Variants After Challenge at pH 7.6 [2] | Relative Activity of GLA Variants After Challenge at pH 4.2 [3] | Relative Activity of GLA Variants After Challenge with Serum [4]
1 | 279 (protein, Synthetic Polypeptide sequence of Variant No. 279 of mature Human GLA) LDNGLARTPTMGWLHWERFMCNLDCQEEPDSCISEKLFMEMAERMVSEGWKDAGYEYLCIDDCWMAPQRDSEGRLQADPQRFPHGIRQLANYVHSKGLKLGIYADVGNKTCAGFPGSFGYYDIDAQTFADWGVDLLKFDGCYCDSLENLADGYKHMSLALNRTGRSIVYSCEWPLYMWPFQKPNYTEIRQYCNHWRNFADIDDSWASIKSILDWTSRNQERIVDVAGPGGWNDPDMLVIGNFGLSWDQQVTQMALWAIMAAPLFMSNDLRHISPQAKALLQDKDVIAINQDPLGKQGYQLRKGDNFEVWERPLSGLAWAVAMINRQEIGGPRSYTIAVASLGKGVACNPGCFITQLLPVKRKLGFYEWTSRLRSHINPTGTVLLQLENTMQMSLKDLL | ++ (++ = 1.5 to 2.5 relative activity over Rd2BB (SEQ ID NO: 10)) | +++ (+++ = >2.5 relative activity over Rd2BB (SEQ ID NO: 10)) | +++ (+++ = >2.5 relative activity over Rd2BB (SEQ ID NO: 10)) | +++ (+++ = >2.5 relative activity over Rd2BB (SEQ ID NO: 10))
2 | 284 (protein, Synthetic Polypeptide sequence of Variant No. 284 of mature Human GLA) LDNGLARTPTMGWLHWERFMCNLDCQEEPDSCISEKLFMEMAERMVSEGWKDAGYEYLCIDDCWMAPQRDSEGRLQADPQRFPHGIRQLANYVHSKGLKLGIYADVGNKTCAGFPGSFGYYDIDAQTFADWGVDLLKFDGCYCDSLENLADGYKHMSLALNRTGRSIVYSCEWPLYMWPFQKPNYTEIRQYCNHWRNFADIDDSWASIKSILDWTSFNQETIVDVAGPGGWNDPDMLVIGNFGLSWDQQVTQMALWAIMAAPLFMSNDLRHISPQAKALLQDKDVIAINQDPLGKQGYQLRQGDNFEVWERPLSGLAWAVAIINRQEIGGPRSYTIAVASLGDGVACNPACFITQLLPVKRKLGLYEWTSRLRSHVNPTGTVLLQLENTMQMSLKDLL | +++ (+++ = >2.5 relative activity over Rd2BB (SEQ ID NO: 10)) | +++ (+++ = >2.5 relative activity over Rd2BB (SEQ ID NO: 10)) | +++ (+++ = >2.5 relative activity over Rd2BB (SEQ ID NO: 10)) | +++ (+++ = >2.5 relative activity over Rd2BB (SEQ ID NO: 10))
3 | 283 (protein, Synthetic Polypeptide sequence of Variant No. 283 of mature Human GLA) LDNGLARTPTMGWLHWERFMCNLDCQEEPDSCISEKLFMEMAERMVSEGWKDAGYEYLCIDDCWMAPQRDSEGRLQADPQRFPHGIRQLANYVHSKGLKLGIYADVGNKTCAGFPGSFGYYDIDAQTFADWGVDLLKFDGCYCDSLENLADGYKHMSLALNRTGRSIVYSCEWPLYMWPFQKPNYTEIRQYCNHWRNFADIDDSWASIKSILDWTSFNQERIVDVAGPGGWNDPDMLVIGNFGLSWDQQVTQMALWAIMAAPLFMSNDLRHISPQAKALLQDKDVIAINQDPLGKQGYQLRKGDNFEVWERPLSGLAWAVAMINRQEIGGPRSYTIPVASLGKGVACNPGCFITQLLPVKRKLGFYDWDSRLRSHINPTGTVLLQLENTMQMSLKDLL | +++ (+++ = >2.5 relative activity over Rd2BB (SEQ ID NO: 10)) | +++ (+++ = >2.5 relative activity over Rd2BB (SEQ ID NO: 10)) | +++ (+++ = >2.5 relative activity over Rd2BB (SEQ ID NO: 10)) | +++ (+++ = >2.5 relative activity over Rd2BB (SEQ ID NO: 10))
4 | 282 (protein, Synthetic Polypeptide sequence of Variant No. 282 of mature Human GLA) LDNGLARTPTMGWLHWERFMCNLDCQEEPDSCISEKLFMEMAERMVSEGWKDAGYEYLCIDDCWMAPQRDSEGRLQADPQRFPHGIRQLANYVHSKGLKLGIYADVGNKTCAGFPGSFGYYDIDAQTFADWGVDLLKFDGCYCDSLENLADGYKHMSLALNRTGRSIVYSCEWPLYMWPFQKPNYTEIRQYCNHWRNFADIDDSWASIKSILDWTSFNQERIVDVAGPGGWNDPDMLVIGNFGLSWDQQVTQMALWAIMAAPLFMSNDLRHISPQAKALLQDKDVIAINQDPLGKQGYQLRQGDNFEVWERPLSGLAWAVAMINRQEIGGPRSYTIPVASLGKGVACNPACFITQLLPVKRKLGFYEWTSRLRSHINPTGTVLLQLENTMQMSLKDLL | + (+ = 0.5 to 1.5 relative activity over Rd2BB (SEQ ID NO: 10)) | + (+ = 0.5 to 1.5 relative activity over Rd2BB (SEQ ID NO: 10)) | + (+ = 0.5 to 1.5 relative activity over Rd2BB (SEQ ID NO: 10)) | + (+ = 0.5 to 1.5 relative activity over Rd2BB (SEQ ID NO: 10))
5 | 281 (protein, Synthetic Polypeptide sequence of Variant No. 281 of mature Human GLA) LDNGLARTPTMGWLHWERFMCNLDCQEEPDSCISEKLFMEMAERMVSEGWKDAGYEYLCIDDCWMAPQRDSEGRLQADPQRFPHGIRQLANYVHSKGLKLGIYADVGNKTCAGFPGSFGYYDIDAQTFADWGVDLLKFDGCYCDSLENLADGYKHMSLALNRTGRSIVYSCEWPLYMWPFQKPNYTEIRQYCNHWRNFADIDDSWASVKSILDWTSFNQEKIVDVAGPGGWNDPDMLVIGNFGLSWNQQVTQMALWAIMAAPLFMSNDLRHISPQAKALLQDKDVIAINQDPLGKQGYQLRQGDNFEVWERPLSGLAWAVAVINRQEIGGPRSYTIAVASLGDGVACNPACFITQLLPVKRKLGLYEWTSRLKSHINPTGTVLLQLENTMQMSLKDLL | + (+ = 0.5 to 1.5 relative activity over Rd2BB (SEQ ID NO: 10)) | + (+ = 0.5 to 1.5 relative activity over Rd2BB (SEQ ID NO: 10)) | + (+ = 0.5 to 1.5 relative activity over Rd2BB (SEQ ID NO: 10)) | + (+ = 0.5 to 1.5 relative activity over Rd2BB (SEQ ID NO: 10))
6 | 280 (protein, Synthetic Polypeptide sequence of Variant No. 280 of mature Human GLA) LDNGLARTPTMGWLHWERFMCNLDCQEEPDSCISEKLFMEMAERMVSEGWKDAGYEYLCIDDCWMAPQRDSEGRLQADPQRFPHGIRQLANYVHSKGLKLGIYADVGNKTCAGFPGSFGYYDIDAQTFADWGVDLLKFDGCYCDSLENLADGYKHMSLALNRTGRSIVYSCEWPLYMWPFQKPNYTEIRQYCNHWRNFADIDDSWASIKSILDWTSRNQERIVDVAGPGGWNDPDMLVIGNFGLSWNQQVTQMALWAIMAAPLFMSNDLRHISPQAKALLQDKDVIAINQDPLGKQGYQLRKGDNFEVWERPLSGLAWAVAMINRQEIGGPRSYTIAVASLGKGVACNPACFITQLLPVKRKLGFYDWDSRLRSHINPTGTVLLQLENTMQMSLKDLL | + (+ = 0.5 to 1.5 relative activity over Rd2BB (SEQ ID NO: 10)) | + (+ = 0.5 to 1.5 relative activity over Rd2BB (SEQ ID NO: 10)) | + (+ = 0.5 to 1.5 relative activity over Rd2BB (SEQ ID NO: 10)) | + (+ = 0.5 to 1.5 relative activity over Rd2BB (SEQ ID NO: 10))
